This passage reports EC50, binding result and Kd results from patent US20230080534A1 (SHANGHAI BIOTROY BIOTECHNIQUE, published 2023).

In general, EC50 refers to the concentration that produces a half-maximal response. By Kd is commonly meant the concentration at which binding is half-saturated.

No end group written: not given here.

For assay [1], the target named is T1, human SEMG2 full-length protein (human, UniProt Q02383 24-582, limits assumed).
T1 construct: also called SEMG2 protein; semenogelin 2
T1 sequence: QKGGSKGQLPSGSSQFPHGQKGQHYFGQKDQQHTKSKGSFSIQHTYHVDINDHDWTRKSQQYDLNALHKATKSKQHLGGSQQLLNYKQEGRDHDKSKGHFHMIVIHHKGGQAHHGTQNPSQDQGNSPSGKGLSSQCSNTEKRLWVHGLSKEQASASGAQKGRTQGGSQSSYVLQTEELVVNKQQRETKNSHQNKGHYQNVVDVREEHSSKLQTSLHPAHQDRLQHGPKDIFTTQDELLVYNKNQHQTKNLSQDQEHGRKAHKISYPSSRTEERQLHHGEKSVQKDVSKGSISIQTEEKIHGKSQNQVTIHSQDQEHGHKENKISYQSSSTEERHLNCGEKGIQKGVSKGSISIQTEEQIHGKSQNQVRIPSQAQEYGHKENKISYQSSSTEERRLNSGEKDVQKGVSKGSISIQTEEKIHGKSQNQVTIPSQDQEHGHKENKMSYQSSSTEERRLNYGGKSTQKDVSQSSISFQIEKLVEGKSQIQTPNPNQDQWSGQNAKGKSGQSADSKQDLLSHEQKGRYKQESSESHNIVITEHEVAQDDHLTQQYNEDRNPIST
Put plainly: ELISA on SEMG2; the EC50 table prints no unit, the axis is log (antibody concentration, nM). For orientation: ELISA stands for enzyme-linked immunosorbent assay.

Assay [2] addresses T2, SEMG2(497-509) polypeptide QIEKLVEGKSQIQ (human).
T2 peptide: QIEKLVEGKSQIQ
Kind of assay: phage display screening on BSA- and KLH-coupled peptide, ELISA. From the text:
Specifically, the preparation of polypeptide antigens and the screening of human natural antibody library were firstly performed. […] ELISA was used to select clones that bind to antigenic epitopes for preliminary screening. Different unique sequences were obtained after sequencing single colonies, sorted according to affinity sorting, and full-length antibodies were constructed from antigen-binding fragments (Fab) with relatively high affinity. The binding ability and blocking function tests were performed after purification, that is, the effect of the antibody on binding between SEMG2 and CD27 was determined by the ELISA experiment.

In assay [3] the target is T1, human SEMG2 full-length protein. Put plainly: biolayer interferometry (ForteBio Blitz or Gator). In short, it runs like this: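 KD of antibodies binding human SEMG2 measured by biolayer interferometry, with antibody and SEMG2 in SD buffer. KD derived by binding-curve analysis.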
For assay [4], the target named is T3, BSA-conjugated human SEMG2 (497-509) polypeptide (human, also: coupled to BSA, site not given here).
T3 peptide: QIEKLVEGKSQIQ
Kind of assay: ELISA, OD450 against antibody concentration (FIG. 21).

B1: H88-93 (antibody, V domains shown)
VH: QITLKESGPTLVKPTQTLTLTCNFSGFSLTTSGVGVAWIRQPPGKALEWLALIYWDDDQRYSPSLKSRLSVTKHTSKDQVVLTMTNVGPVDTATYYCAHLSYGPGWGYYMDVWGNGTMVTVSS
VL: EIVLTQSPGTLSLSPGERASLSCRASQSVRNNYLAWYQQKPGQAPRLLIFGASNRATGIPDTFSGSGSGTDFTLTISRLEPEDFAVYYCQQYGHSPITFGQGTRLEIK
notes: Fully human full-length antibody built from a phage Fab
B1 returned an EC50 in assay [1] of 0.0636 nM. In addition, the binding result in assay [2] and in assay [4] was “binds” each time. Moreover, binding in assay [3] was characterised by a dissociation constant (Kd) of 4.6 nM.
